The record followed here is patent KR20160003317A (dated 2016).

The chains are these.
B1: SC06-241 (scFv)
scFv: EVQLVESGGGLVQPGRSLRLSCAASGFTFRSYAMYWVRQAPGKGLEWLALISHDASKMFYADSVKGRFTISRDNSKNTLSLQMNSLTIEDTAVYYCVRERTGYYGAYWGQGTLVTVSSGTGGSGGTGSGTGGSTDIQMTQSPSSLSASVGDRVTLTCRASQGIGTWLAWYQQKPGKAPKLLIYSASSLQSGVPSRFSGSGSGTDFTLSISNLQPEDFATYYCQQANSFPITFGQGTRLEIK
notes: single-chain phage antibody: the scFv stood on phage in the ELISA
B2: SC06-415 (scFv)
scFv: EVQLVESGGGLVQPGRSLRLSCAASGFTFDDYAMHWVRQAPGKGLEWVSGISWNSGSIGYADSVKGRFTISRDNAKNSLYLQMNSLRAEDSAVYYCARGGQRFDFWGQGTLVTVSSGTGGSGGTGSGTGGSTQSALTQPPSASGSPGQSVTISCTGTSSDVGGYNYVSWYQQLPGKAPKLLIYDVNNRPSGVSNRFSGSKSGNTASLTISGLQAEDEAEYYCGSSVGSRLRIFGGGTKLTVL
notes: as for B1
B3: SC06-242 (scFv)
scFv: EVQLVESGPGLVKPSETLSLTCTVSGGSISSYYWSWIRQPPGKGLEWIGYIYYTGTTNYNPSLNSRVTISADTSKNQFSLKLSSVTAADTAVYYCARGGQTAGVWGKGTTVTVSSGTGGSGGTGSGTGGSTQSVLTQPPSVSVAPGQTARITCGGYNIGRKSVHWYQQKPGLAPVLVVYDNSDRPSGIPARFSGSNSGNTATLTISGTQAMDEADYYCQAWDRGTAVFGTGTKVTVL
notes: as for B1
B4: SC06-246 (scFv)
scFv: EVQLVESGGGLIQPGGSLRLSCAASGFTVSSDFMTWVRQAPGRGLEWVSLIYSGGKTNYADSVKGRFTISRDNSRNTLYLQMNSLRAEDTAVYYCARSVCSTISCSKLDDWGQGTLVTVSSGTGGSGGTGSGTGGSTQAVLTQPSSVSVAPGQTARITCGGNNIGRKSVHWYQQKPGLAPVLVVNDNSDRPSGIPARFSGSNSGNTATLTISRVEAGDEADYYCHVWGSSRDHYVFGTGTKVTVL
notes: as for B1
B5: SC05-159 (scFv)
scFv: QVQLVQSGAEVKKPGATVKISCKVSGYTFTDYYMHWVQQAPGKGLEWMGLVDPEDGETIYAEKFQGRVTITADTSTDTAYMELSSLRSDDTAVYYCARAEVMTTINNWYFDLWGRGTLVTVSSGTGGSGGTGSGTGGSTSYVLTQPPSASGTPGQRVTISCSGSSSNIGSNNVSWYQQLPGTAPKLLIYSNNQRPSGVPDRFSGSKSGTSASLAISGLQSEDEADYYCAAWDDSLNGWVFGGGTKLTVL
notes: as for B1
B6: SC06-078 (scFv)
scFv: EVQLVESGAEVKKPGSSVKVSCKASGGTFSSYAISWVRQAPGQGLEWMGGIIPIFGTANYAQKFQGKVTITADESTSTAYMELSSLRSEDTAVYYCARLSPRYYGMDVWGQGTTVTVSSGTGGSGGTGSGTGGSTQSALTQPRSVSGSPGQSVTISCTGTSSDVGGYNYVSWYQQHPGKAPKLMIYGGSERPSGVSNRFSGSKSGNTASLTISGVQAEDEADYYCSSYTSSGTLLFGGGTQLTVL
notes: as for B1
B7: SC06-409 (scFv)
scFv: EVQLVQSGAEVKKPGESLKISCKGSGYSFTNYWIGWVRQMPGKGLEWMGIIYPGDSDTRYSPSFQGQVTISADKSISTAYLQWSSLKASDTAMYYCARHTQNKNGMNTFDIWGQGTMVTVSSGTGGSGGTGSGTGGSTQSALTQPPSASGSPGQSVTISCTGTSSDIGGYNYVSWYQQHPGKAPKLMIYEVSNRPPGVSNRFSGSKSGNTASLTISGLQAEDEADYYCSSYSTTTTRVIFGGGTKLTVL
notes: as for B1
B8: SC06-191 (scFv)
scFv: EVQLVESGGGVVQPGRSLRLSCVASEFTFSNYGMHWVRQAPGKGLEWVAVIWYDGSNEDYADSVKGRFTISRDNSKNTVYLHMNSLRAEDTAVYFCTRGQYSSTWFLDYWGQGTLVTVSSGTGGSGGTGSGTGGSTDIQLTQSPSTLSASVGDRVTITCRASQSISSWLAWYQQKPGKAPKLLIYKASSLETGVPSRFSGSGSGTDFTLTISSLQPEDFATYYCQQANSFPLTFGGGTKVDIK
notes: as for B1
B9: SC06-198 (scFv)
scFv: QLQLQESGPGLVKPSETLSLTCAVSGYSITSGYYWGWVRQPPGKGLEWIGSIYHTGSTYYNPSLKSRVTISVDTSKNQFSLKLNSLTAADTAVYFCASQSPAFDFWGQGTMVTVSSGTGGSGGTGSGTGGSTQSVLTQPPSVSGAPGQRVTISCTGSSSNIGTGYDVHWYQQLPGTAPKLLIYGNNNRPSGVPDRFSGSKSGTSASLAITGLQAEDEADYYCATWDDSLNGWVFGGGTKLTVP
notes: as for B1
B10: SC06-389 (scFv)
scFv: QVQLVQSGAEVKKPGESLKISCKGSGYSFSTYWIGWVRQMPGKGLEWMGIIYPGDSDTRYSPSFQGQVTISADKSISTAHLQWSSLKASDTAMYYCARPGPRGYNHGFDYWGQGTLVTVSSGTGGSGGTGSGTGGSTSSELTQDPAESVALGQTVKITCQGDSLRRYYASWYQQKPGQAPVLVIYGKNNRPSGIPDRFSGSRSGNTASLTITGAQAEDEAVYYCNSRDSSGNSVVFGGGTKLTVL
notes: as for B1
B11: SC06-252 (scFv)
scFv: EVQLVETGGGLVQPGGSLRLSCAASGLTFSSYAMSWVRQAPGKGLEWVSALSGSTTFYADSVKGRFTISRDNAKNTLYLQMNSLRAEDTAVYYCARGNYYGMDVWGQGTTVTVSSGTGGSGGTGSGTGGSTSYVLTQPPSASGTPGQRVTISCSGSSSNIGKFYVYWYQQFPGAAPKLLIYSNNQRPSGVPDRFSGSKSGTSASLAISGLQSEDEADYYCAAWDGSLNGYVFGTGTKVTVL
notes: as for B1
B12: SC05-157 (scFv)
scFv: EVQLVESGAEVKKPGESLKISCKGSGYSFTNYWIGWVRQMPGKGLEWMGIVYPGDSDTRYSPSFQGQVTISADKSISTAYLQWSSLKASDTAVYYCARRMAVAGSDAFDIWGQGTMVTVSSGTGGSGGTGSGTGGSTQAVLTQPSSASGTPGQTVTISCSGSTSNIGSHNVNWYQHLPGTAPKLLIYINNKRPSGVPDRFSGSKSGSSASLAISGLQSEDEADYYCAAWDDSLRRPVFGGGTQLTVL
notes: as for B1
B13: SC06-388 (scFv)
scFv: EVQLVETGAEVKKPGESLRISCKGSGYSFTSYWIAWVRQMPGKGLEWMGVIYPGDSDARYSPSFQGQVTMSVDKSISTAYLQWSSLKASDTAMYYCAKLRSKNTGLDYWGQGTLVTVSSGTGGSGGTGSGTGGSTQSALTQPPSASGSPGQSVTISCTGTSSDVGGYNFVSWYQQHPGKAPKLMIYEVSNRPSGVPDRFSGSKSGNTASLTVSGLQAEDEADYYCSSYAGNNNLAFGGGTQLTVL
notes: as for B1
B14: SC06-077 (scFv)
scFv: QVQLVQSGAEVKKPGSSVKVSCKASGGTFSSYAISWVRQAPGQGLEWMGGIIPIFGTANYAQKFQGRVTITADESTSTAYMELSSLRSEDTAVYYCAREGGVGPAFDIWGQGTMVTVSSGTGGSGGTGSGTGGSTDIQMTQSPDSLAVSLGERATINCKSSQSVLHNSNNKNYLAWYQQKPGQPPKLLIYWASTRESGVPDRFSGSGSGTDFTLTISSLQAEDVAVYYCQQYYGSPYTFGQGTKLEIK
notes: as for B1
B15: SC06-402 (scFv)
scFv: QVQLVQSGAEVKKPGESLKISCKGSGYSFTSYWIGWVRQMPGKGLEWMGIIYPGDSDTRYSPSFQGQVTISADKSISTAYLQWSSLKASDTAMYYCARWGGVCSSTSCPNRDAFDIWGQGTMVTVSSGTGGSGGTGSGTGGSTQSALTQPRSVSGSPGQSVTISCTGTSSDVGGYNYVSWYQQHPGKAPKLMIYDVSNRPSGVSNRFSGSKSGNTASLTISGLQAEDEAEFHCSSYRSSGASPVVFGGGTKLTVL
notes: as for B1
B16: SC06-092 (scFv)
scFv: EVQLVESGGGLVQPGRSLRLSCTGSGFTFGDYAMSWFRQAPGKGLEWVGFIRNKAYGGTAEYAASVKDRFIISRDDSKSIAYLQMNSLKTEDTAVYYCVRREYDTGWLDYWGQGTLVTVSSGTGGSGGTGSGTGGSTQSALTQPPSASGSPGQSVTISCTGTSSDVGGYNYVSWYQRHPGKAPKLMIYDVTDRPSGVSNRFSGSKSGNTASLTISGLQAEDEADYYCSSYTSSSTSAVFGGGTKLTVL
notes: as for B1
B17: SC06-071 (scFv)
scFv: EVQLVESGGGVVQPGRSLRLSCAASGFTFSSYGMHWVRQAPGKGLEWVAMIWSDGSNKYYADSVKGRFTISRDNSKNTLYLQMNSLRVEDTAVYYCASNYGSGSYWGGFDYWGQGTLVTVSSGTGGSGGTGSGTGGSTQSALTQPASVSGSPGQSITISCTGTSSDVGGYNLVSWYQQHPGKAPKLMIYEGSKRPSGVSNRFFGSKSGDTASLTISGLQAEDEADYYCSSYTTSSTHVFGTGTKVTVL
notes: as for B1
B18: SC06-087 (scFv)
scFv: EVQLVESGGGLVKPGGSLRLSCAASGFTFSSNSMNWVRQAPGKGLEWVSFISSSSTYIYYADSVKGRFTISRDNAKNSLYLQMNSLRAEDTAVYYCARESAAGISYDAFDIWGQGTMVTVSSGTGGSGGTGSGTGGSTQSALTQPASVSGSPGQSITISCTGTSSDVGGYKYVSWYQQHPGKAPKLMIYEVSNRPSGVSNRFSGSKSGSTASLTISGLQAEDEADYYCSSYTSSSTLGVFGTGTKVTVL
notes: as for B1
B19: SC06-079 (scFv)
scFv: EVQLVESGGGLVQPGGSLRLSCAASGFTFSSYAMSWVRQAPGKGLEWVSAISGTGGSAYYADSVKGRFTISRDNSKNTVYLQMNSLRAEDTAVYYCAKGHSSGTNWGQGTLVTVSSGTGGSGGTGSGTGGSTSYVLTQPPSASGTPGQRVTISCSGSSSNIGSNFVYWYQQLPGTAPKLLIYRNNQRPSGVPDRFSGSKSGTSASLAISGLRSEDEADYYCAAWDDSLSGVLFGGGTQLTVL
notes: as for B1
B20: SC06-089 (scFv)
scFv: EVQLVETGGGLVQPGGSLRLSCAASGFTFSSYSMNWVRQAPGKGLEWVSFISSSSSTIYYADSVKGRFTIARDNAKNSLYLQMNSLRDEDTAVYYCARPVGTGISLFHAFDIWGQGTMVTVSSGTGGSGGTGSGTGGSTQSVLTQPPSVSVAPGQTARITCGGNNIGSKYVHWYQQKPGQAPVLVVYDDSDRPSGIPERFSGSNSGNTATLTISRVEAGDEADFYCQVWDGSSDPVVFGGGTKLTVL
notes: as for B1

T1 sequence (P02769 25-607 limits assumed): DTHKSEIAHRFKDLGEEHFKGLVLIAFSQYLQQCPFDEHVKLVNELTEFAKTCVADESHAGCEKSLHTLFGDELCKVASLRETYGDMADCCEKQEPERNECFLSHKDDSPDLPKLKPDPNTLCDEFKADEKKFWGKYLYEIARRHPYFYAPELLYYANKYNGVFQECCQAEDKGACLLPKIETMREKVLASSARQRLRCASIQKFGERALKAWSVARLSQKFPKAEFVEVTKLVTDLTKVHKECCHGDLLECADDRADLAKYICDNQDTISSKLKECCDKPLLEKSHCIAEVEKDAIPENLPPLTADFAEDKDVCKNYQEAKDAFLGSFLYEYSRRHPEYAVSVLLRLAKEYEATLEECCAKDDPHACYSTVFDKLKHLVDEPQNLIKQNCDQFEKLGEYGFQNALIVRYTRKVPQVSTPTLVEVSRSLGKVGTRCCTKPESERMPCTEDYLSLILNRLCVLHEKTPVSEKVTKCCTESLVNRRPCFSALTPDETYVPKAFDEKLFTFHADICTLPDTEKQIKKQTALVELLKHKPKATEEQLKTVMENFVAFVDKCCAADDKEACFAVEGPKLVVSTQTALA

This assay concerns the target T1, 송아지 혈청 알부민(BSA) (bovine (printed: 송아지 혈청 알부민), UniProt P02769 25-607).
T1 construct: also called bovine serum albumin
In words: phage ELISA, 1% BSA coated, anti-M13-peroxidase, absorbance 492 nm. A general note: In an ELISA, binding on a coated surface is turned into a signal by an enzyme label.
With B1, the binding result is reported as “no binding”. In the case of B2 it was “no binding”; in that of B3, “no binding”; in that of B4, “no binding”. In the case of B5 it was “no binding”; in that of B6, “no binding”. In the case of B7 it was “no binding”. Consider B8, for which the binding result is listed as “no binding”. The result for B9 reads “no binding”; that for B10, “no binding”; that for B11, “no binding”.

Regarding B12, the binding result is listed as “no binding”. The result for B13 reads “no binding”; that for B14, “no binding”; that for B15, “no binding”.

For B16, the binding result is given as “no binding”. Turning to B17, the binding result is on record as “no binding”. In the case of B18 it was “no binding”. As for B19, the binding result is given as “no binding”. In the case of B20 it was “no binding”.
